Positions count from the first letter of the chain named. Values belong to the binder of their own block, whether it stands above or below them.
How the values were obtained:
[1] = target: T1, Human TNFR2-His (Sino 10417-H08H) (human, UniProt P20333 23-257); assay: ELISA, human TNFR2-His coated; EC50 against 001-WT
T1 construct: Bought protein; also called recombinant human TNFR2 protein; not shown: His tag
T1 sequence (looked up): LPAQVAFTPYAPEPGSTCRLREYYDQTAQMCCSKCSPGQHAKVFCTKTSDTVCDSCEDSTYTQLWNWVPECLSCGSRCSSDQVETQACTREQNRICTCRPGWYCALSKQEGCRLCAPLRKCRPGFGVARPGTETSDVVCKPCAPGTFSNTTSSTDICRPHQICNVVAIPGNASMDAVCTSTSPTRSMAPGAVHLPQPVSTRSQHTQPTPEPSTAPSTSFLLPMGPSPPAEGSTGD
Procedure: The test humanized antibody against TNFR2 (as described in Example 1, the antibody was comprised of variable regions linked to IgG-Fc; the WT chimeric antibody also adopted the IgG-Fc structure) was subjected to 3.33-fold gradient dilution, loaded with 100 μl/well, and incubated with shaking at room temperature for 1.5 hours. The plate was washed, and then a working solution of murine anti-human IgG Fc-HRP (diluted at 1:10000) was added, loaded with 100 μl/well, and incubated with shaking at room temperature for 1.0 hour. The plate was washed again, and then the substrate TMB of HRP was added to develop colour. A stop solution was added to stop the reaction, and then a microplate reader (MD 13) was used to read the absorbance value. The binding curve of an antibody was drawn with antibody concentration as the abscissa and corresponding OD value as the ordinate, and fitted with four parameters (GraphPad Prism9) to calculate the EC50 value. The smaller the EC50 value, the stronger the binding ability of an antibody to human/cynomolgus monkey TNFR2. The binding effect of a humanized antibody was normalized to its corresponding human-murine chimeric antibody WT (see SEQ ID NOs: 38-43 for the sequence). The higher the percentage value, the better the binding effect of the humanized antibody. The results of binding of an anti-TNFR2 antibody to a human TNFR2 protein are shown in FIG. 1 and Table 4, and the results of binding of an anti-TNFR2 antibody to cynomolgus monkey TNFR2 are shown in FIG. 2 and Table 4.

[2] = target: T2, human TNFR2 on the surface of CHO-TNFR2 cells (human, UniProt P20333 23-461); assay: flow cytometry on CHO-TNFR2 cells; AUC against 001-WT
T2 construct: whole, on cells
T2 sequence (looked up): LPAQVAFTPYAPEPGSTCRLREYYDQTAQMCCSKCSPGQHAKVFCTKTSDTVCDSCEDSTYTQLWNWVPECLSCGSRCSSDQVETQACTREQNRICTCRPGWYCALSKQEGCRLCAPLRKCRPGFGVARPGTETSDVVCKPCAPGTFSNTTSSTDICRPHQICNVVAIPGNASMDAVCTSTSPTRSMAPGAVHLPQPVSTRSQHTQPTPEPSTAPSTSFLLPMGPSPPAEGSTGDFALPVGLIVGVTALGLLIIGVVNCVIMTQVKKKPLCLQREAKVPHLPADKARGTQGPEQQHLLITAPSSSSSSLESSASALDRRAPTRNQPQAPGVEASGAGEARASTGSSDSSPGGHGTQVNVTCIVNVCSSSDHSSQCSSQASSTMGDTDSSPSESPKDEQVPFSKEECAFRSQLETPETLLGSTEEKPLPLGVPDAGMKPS
Procedure: The transfected full-length plasmid of human TNFR2 was purchased from Sino Biological (Cat #HG10417-UT, NCBI Ref Seq: NM_001066.2). The experiment was conducted at a cell density within 80%. The cell medium was discarded; the cells were rinsed with PBS, and digested with 1 ml trypsin for 2 minutes; the digestion was stopped with a Ham's F12 complete medium containing 10% FBS, and then a cell suspension was made. The cell suspension was counted, and then an appropriate amount of cell suspension was centrifuged at 350×g; the supernatant was discarded; a corresponding volume of blocking solution (10% FBS+PBS) at a density of 1×10⁷ cells/ml was added to resuspend the cells, and the mixture was incubated at 4° C. for 30 minutes. After the incubation, the mixture was centrifuged at 350×g to remove the supernatant, and the cells were resuspended in a staining buffer (2% FBS+PBS) to a density of 2×10⁶ cells/ml, and spread onto a 96-well plate, with 50 μl of cell suspension added to each well for later use. The antibody was diluted with PBS for 10-fold gradient dilution from the highest concentration of 20 μg/m (twice the concentration); the diluted antibody was added to the well containing 50 μl of cell suspension, and placed on a microplate shaker for shaking at 500 rpm for 1 minute, so that the antibody was fully mixed with the cells; the mixture was incubated at 4° C. for 1 h. After the incubation, the cells were washed twice with the staining buffer, with 100 μl per well, and centrifuged at 350-g for 5 minutes, and the supernatant was discarded. The PE goat anti-Human IgG Fc antibody (ebioscience, Cat #12-4998-82) was diluted 250-fold with the staining buffer, with a volume of 100 μl per well added to the washed cell wells; the mixture was mixed evenly, and stained at 4° C. for 30 minutes. After the staining, similarly, the cells were washed twice with the staining buffer; finally, the cells were resuspended in 200 μl of staining buffer; signals were detected by a flow cytometer (Thermo Attune NxT). The stronger the signal, the stronger the binding ability of an antibody to TNFR2. The binding curve of an antibody was drawn with antibody concentration as the abscissa and corresponding mean fluorescence intensity (MFI) fold as the ordinate, and fitted with four parameters (GraphPad Prism9) to calculate the EC50 value.

[3] = target: T3, human TNFR2 (Novoprotein, Cat #C830) (human, UniProt P20333 23-257, limits assumed); assay: competition ELISA, competitor human TNFα-Biotin; IC50 against 001-WT
T3 construct: construct not described; also called human TNFR2 protein
T3 sequence (looked up): T1 sequence (looked up)
Procedure: 1 μg/ml human TNFR2 (Novoprotein, Cat #C830) was pre-coated with 100 μl/well […] in an ELISA plate. All the test TNFR2 antibodies were subjected to 2.5-fold gradient dilution from the highest concentration of 30 μg/ml; the diluted antibodies were mixed with 15 ng/ml human TNFα-Biotin (Acro Biosystem, Cat #TNA-H82E3) in equal volume, respectively; the resulting mixture was added to the ELISA plate at 100 μl/well, and incubated with shaking at room temperature for 2.0 hours. The plate was washed, and then a Streptavidin-HRP working solution (diluted at 1:10000) was added at 100 μl/well, and the mixture was incubated with shaking at room temperature for 40 minutes. The plate was washed again, and then the substrate TMB of HRP was added to develop colour. A stop solution was added to stop the reaction, and then a microplate reader (MD 13) was used to read the absorbance value. The inhibitory curve of an antibody was drawn with antibody concentration as the abscissa and corresponding OD value as the ordinate, and fitted with four parameters (GraphPad Prism9) to calculate the IC50 value. The smaller the IC50 value, the stronger the ability of an antibody to inhibit the binding of human TNFα to human TNFR2. The blocking effect of a humanized antibody was normalized to its corresponding human-murine chimeric antibody WT. The higher the percentage value, the better the inhibitory effect of the humanized antibody.

- % Relative activity (WT antibody/test antibody) [1]: 109%
- % Relative activity (Test antibody/WT antibody) [2]: 92.2%
- % Relative activity (WT antibody/test antibody) [3]: 105%
B4: 001-Hu4 (antibody, V domains shown)
VH: EVQLVESGGGLVQPGGSLRLSCAASGFAFSTYDLSWVRQAPGKGLEWVAYINNGGISTYYSDTVKGRFTISRDNAKNSLYLQMNSLRAEDTAVYYCVRGPFYGSANYFDYWGQGTLVTVSS
VL: DIQMTQSPSSLSASVGDRVTITCRTSESIYSNLPWYQQKPGKSPKLLVYDATKLAEGVPSRFSGSGSGTDYTLTISSLQPEDFATYYCQHFWVTPWTFGQGTKVEIK
notes: Humanized form of #001; also called VH2 + VL4

- % Relative activity (WT antibody/test antibody) [1]: 101%
- % Relative activity (Test antibody/WT antibody) [2]: 87.8%
- % Relative activity (WT antibody/test antibody) [3]: 105%
B5: 001-Hu3 (antibody, V domains shown)
VH: B4 VH with S78T
VL: B4 VL with S43A, V48I
notes: Humanized form of #001; also called VH1 + VL3

Continued, binder first:

B1: 001-Hu5 (antibody, V domains shown)
VH: B4 VH with S78T
VL: B4 VL
notes: Humanized form of #001; also called VH1 + VL4
- % Relative activity (WT antibody/test antibody) [1]: 100%
- % Relative activity (Test antibody/WT antibody) [2]: 87.8%
- % Relative activity (WT antibody/test antibody) [3]: 96.5%

B2: 001-Hu2 (antibody, V domains shown)
VH: B4 VH
VL: B4 VL with V48I, Y71F
notes: Humanized form of #001; also called VH2 + VL2
- % Relative activity (WT antibody/test antibody) [1]: 102%
- % Relative activity (Test antibody/WT antibody) [2]: 88.2%
- % Relative activity (WT antibody/test antibody) [3]: 82.8%

B3: 001-Hu1 (antibody, V domains shown)
VH: B4 VH with S78T
VL: B4 VL with S43A, V48L
notes: Humanized form of #001; also called VH1 + VL1
- % Relative activity (WT antibody/test antibody) [1]: 104%
- % Relative activity (Test antibody/WT antibody) [2]: 93.4%
- % Relative activity (WT antibody/test antibody) [3]: 94.7%
